Measured values published in the supplement of paper PMC9112550, “Optimization of the antimicrobial peptide Bac7 by deep mutational scanning” (BMC Biology, 2022).

Test system: Escherichia coli TOP10
Test: shrunken log2 fold change of peptide-encoding DNA abundance (4.5 h post-induction vs induction); higher = less antimicrobial activity (less host growth inhibition)
Conditions: time post-induction: 4.5 h; library: site-saturation at positions 5, 18, 19, 20
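Further: peptides expressed intracellularly from a pBAD plasmid library in pooled LB shake-flask culture, induced with 0.3% L-arabinose, DNA abundance read by NGS, three biological replicates, DESeq2 with apeglm shrinkage.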

| Sequence | shrunken log2 fold change |
| --- | --- |
| RRIRFRPPRLPRPRPRPLRMPRP | 0.0542 |
| RRIRFRPPRLPRPRPRPLRQPRP | 0.0138 |
| RRIRFRPPRLPRPRPRPLSYPRP | -0.0166 |
| RRIRFRPPRLPRPRPRPLTGPRP | -0.196 |
| RRIRFRPPRLPRPRPRPLVPPRP | 0.338 |
| RRIRFRPPRLPRPRPRPLVVPRP | -0.0929 |
| RRIRFRPPRLPRPRPRPLWQPRP | -0.308 |
| RRIRFRPPRLPRPRPRPLYCPRP | -0.937 |
| RRIRFRPPRLPRPRPRPLYEPRP | -0.664 |
| RRIRFRPPRLPRPRPRPLYKPRP | -0.813 |
| RRIRFRPPRLPRPRPRPMADPRP | -0.00574 |
| RRIRFRPPRLPRPRPRPMAQPRP | -0.337 |
| RRIRFRPPRLPRPRPRPMCVPRP | -0.405 |
| RRIRFRPPRLPRPRPRPMEHPRP | -0.416 |
| RRIRFRPPRLPRPRPRPMFAPRP | 0.0307 |
| RRIRFRPPRLPRPRPRPMFDPRP | -0.155 |
| RRIRFRPPRLPRPRPRPMGCPRP | 0.125 |
| RRIRFRPPRLPRPRPRPMGGPRP | -0.166 |
| RRIRFRPPRLPRPRPRPMGYPRP | -0.226 |
| RRIRFRPPRLPRPRPRPMHNPRP | -0.52 |
| RRIRFRPPRLPRPRPRPMIIPRP | -0.871 |
| RRIRFRPPRLPRPRPRPMKCPRP | -0.695 |
| RRIRFRPPRLPRPRPRPMKSPRP | -0.198 |
| RRIRFRPPRLPRPRPRPMLAPRP | 0.0819 |
| RRIRFRPPRLPRPRPRPMMQPRP | -0.297 |

| Sequence | shrunken log2 fold change |
| --- | --- |
| RRIRFRPPRLPRPRPRPMNCPRP | -0.735 |
| RRIRFRPPRLPRPRPRPMNDPRP | -0.122 |
| RRIRFRPPRLPRPRPRPMNYPRP | -0.582 |
| RRIRFRPPRLPRPRPRPMPNPRP | 0.0592 |
| RRIRFRPPRLPRPRPRPMPSPRP | 0.0917 |
| RRIRFRPPRLPRPRPRPMQIPRP | -0.147 |
| RRIRFRPPRLPRPRPRPMRGPRP | 0.664 |
| RRIRFRPPRLPRPRPRPMRQPRP | 0.0953 |
| RRIRFRPPRLPRPRPRPMSSPRP | -0.0482 |
| RRIRFRPPRLPRPRPRPMTVPRP | -0.463 |
| RRIRFRPPRLPRPRPRPMVWPRP | 0.156 |
| RRIRFRPPRLPRPRPRPMYGPRP | -0.36 |
| RRIRFRPPRLPRPRPRPNCIPRP | -0.342 |
| RRIRFRPPRLPRPRPRPNCNPRP | -0.469 |
| RRIRFRPPRLPRPRPRPNCSPRP | -0.498 |
| RRIRFRPPRLPRPRPRPNEKPRP | 0.0854 |
| RRIRFRPPRLPRPRPRPNFKPRP | -0.222 |
| RRIRFRPPRLPRPRPRPNFSPRP | -0.283 |
| RRIRFRPPRLPRPRPRPNFTPRP | -0.0305 |
| RRIRFRPPRLPRPRPRPNGRPRP | -0.123 |
| RRIRFRPPRLPRPRPRPNILPRP | -0.178 |
| RRIRFRPPRLPRPRPRPNINPRP | -0.536 |
| RRIRFRPPRLPRPRPRPNITPRP | -0.633 |
| RRIRFRPPRLPRPRPRPNIWPRP | -0.224 |
| RRIRFRPPRLPRPRPRPNNEPRP | -0.265 |

| Sequence | shrunken log2 fold change |
| --- | --- |
| RRIRFRPPRLPRPRPRPNPVPRP | -0.117 |
| RRIRFRPPRLPRPRPRPNRDPRP | -0.0824 |
| RRIRFRPPRLPRPRPRPNSDPRP | -0.209 |
| RRIRFRPPRLPRPRPRPNSKPRP | -0.464 |
| RRIRFRPPRLPRPRPRPNSMPRP | -1.01 |
| RRIRFRPPRLPRPRPRPNTWPRP | -0.277 |
| RRIRFRPPRLPRPRPRPNWIPRP | -0.426 |
| RRIRFRPPRLPRPRPRPNYCPRP | -0.499 |
| RRIRFRPPRLPRPRPRPPADPRP | 0.789 |
| RRIRFRPPRLPRPRPRPPAEPRP | 0.606 |
| RRIRFRPPRLPRPRPRPPCIPRP | -0.0411 |
| RRIRFRPPRLPRPRPRPPCNPRP | -0.284 |
| RRIRFRPPRLPRPRPRPPDFPRP | -0.195 |
| RRIRFRPPRLPRPRPRPPDPPRP | 0.571 |
| RRIRFRPPRLPRPRPRPPEAPRP | 0.232 |
| RRIRFRPPRLPRPRPRPPECPRP | -0.0973 |
| RRIRFRPPRLPRPRPRPPEHPRP | 0.682 |
| RRIRFRPPRLPRPRPRPPEKPRP | 0.078 |
| RRIRFRPPRLPRPRPRPPEMPRP | 0.0471 |
| RRIRFRPPRLPRPRPRPPFCPRP | 0.0782 |
| RRIRFRPPRLPRPRPRPPGDPRP | 0.58 |
| RRIRFRPPRLPRPRPRPPGFPRP | 0.268 |
| RRIRFRPPRLPRPRPRPPIHPRP | -0.255 |
| RRIRFRPPRLPRPRPRPPKGPRP | -0.0971 |
| RRIRFRPPRLPRPRPRPPKNPRP | 0.541 |

| Sequence | shrunken log2 fold change |
| --- | --- |
| RRIRFRPPRLPRPRPRPPMVPRP | -0.391 |
| RRIRFRPPRLPRPRPRPPNKPRP | 0.1 |
| RRIRFRPPRLPRPRPRPPQGPRP | 0.171 |
| RRIRFRPPRLPRPRPRPPQHPRP | 0.108 |
| RRIRFRPPRLPRPRPRPPTEPRP | 0.438 |
| RRIRFRPPRLPRPRPRPPTWPRP | 0.239 |
| RRIRFRPPRLPRPRPRPPYEPRP | -0.202 |
| RRIRFRPPRLPRPRPRPPYKPRP | -0.279 |
| RRIRFRPPRLPRPRPRPPYPPRP | -0.0265 |
| RRIRFRPPRLPRPRPRPQCSPRP | 0.0505 |
| RRIRFRPPRLPRPRPRPQDWPRP | -0.12 |
| RRIRFRPPRLPRPRPRPQEAPRP | 0.201 |
| RRIRFRPPRLPRPRPRPQESPRP | 0.124 |
| RRIRFRPPRLPRPRPRPQGWPRP | 0.466 |
| RRIRFRPPRLPRPRPRPQIEPRP | -0.24 |
| RRIRFRPPRLPRPRPRPQKPPRP | 0.121 |
| RRIRFRPPRLPRPRPRPQLHPRP | 0.381 |
| RRIRFRPPRLPRPRPRPQLYPRP | -0.588 |
| RRIRFRPPRLPRPRPRPQMHPRP | -0.332 |
| RRIRFRPPRLPRPRPRPQPEPRP | -0.119 |
| RRIRFRPPRLPRPRPRPQQGPRP | -0.0566 |
| RRIRFRPPRLPRPRPRPQQHPRP | -0.38 |
| RRIRFRPPRLPRPRPRPQRAPRP | 0.462 |
| RRIRFRPPRLPRPRPRPQRDPRP | 0.218 |
| RRIRFRPPRLPRPRPRPQRVPRP | 0.045 |

| Sequence | shrunken log2 fold change |
| --- | --- |
| RRIRFRPPRLPRPRPRPQSEPRP | 0.00741 |
| RRIRFRPPRLPRPRPRPQSIPRP | 0.0159 |
| RRIRFRPPRLPRPRPRPQTRPRP | 0.149 |
| RRIRFRPPRLPRPRPRPQVHPRP | -0.262 |
| RRIRFRPPRLPRPRPRPQVPPRP | -0.144 |
| RRIRFRPPRLPRPRPRPQWFPRP | -0.344 |
| RRIRFRPPRLPRPRPRPQYKPRP | -0.755 |
| RRIRFRPPRLPRPRPRPRARPRP | 0.661 |
| RRIRFRPPRLPRPRPRPRCEPRP | -0.0311 |
| RRIRFRPPRLPRPRPRPRDGPRP | 1.36 |
| RRIRFRPPRLPRPRPRPRFEPRP | 0.162 |
| RRIRFRPPRLPRPRPRPRFIPRP | -0.498 |
| RRIRFRPPRLPRPRPRPRFQPRP | 0.0731 |
| RRIRFRPPRLPRPRPRPRGSPRP | 0.432 |
| RRIRFRPPRLPRPRPRPRGWPRP | 0.9 |
| RRIRFRPPRLPRPRPRPRHSPRP | 0.0584 |
| RRIRFRPPRLPRPRPRPRINPRP | -0.314 |
| RRIRFRPPRLPRPRPRPRKRPRP | 0.263 |
| RRIRFRPPRLPRPRPRPRMVPRP | -0.157 |
| RRIRFRPPRLPRPRPRPRNTPRP | -0.279 |
| RRIRFRPPRLPRPRPRPRQAPRP | 0.128 |
| RRIRFRPPRLPRPRPRPRRMPRP | 0.397 |
| RRIRFRPPRLPRPRPRPRRNPRP | 0.136 |
| RRIRFRPPRLPRPRPRPRTTPRP | 0.299 |
| RRIRFRPPRLPRPRPRPRVFPRP | 0.232 |

| Sequence | shrunken log2 fold change |
| --- | --- |
| RRIRFRPPRLPRPRPRPRVGPRP | 0.24 |
| RRIRFRPPRLPRPRPRPRVTPRP | 0.42 |
| RRIRFRPPRLPRPRPRPRVVPRP | 0.298 |
| RRIRFRPPRLPRPRPRPRWHPRP | 0.059 |
| RRIRFRPPRLPRPRPRPRYKPRP | -0.311 |
| RRIRFRPPRLPRPRPRPSAGPRP | 0.192 |
| RRIRFRPPRLPRPRPRPSAMPRP | -0.0766 |
| RRIRFRPPRLPRPRPRPSCCPRP | -0.443 |
| RRIRFRPPRLPRPRPRPSCRPRP | -0.145 |
| RRIRFRPPRLPRPRPRPSDKPRP | -0.355 |
| RRIRFRPPRLPRPRPRPSEVPRP | -0.0167 |
| RRIRFRPPRLPRPRPRPSFKPRP | -0.683 |
| RRIRFRPPRLPRPRPRPSFLPRP | -0.572 |
| RRIRFRPPRLPRPRPRPSFTPRP | 0.587 |
| RRIRFRPPRLPRPRPRPSGVPRP | 0.0832 |
| RRIRFRPPRLPRPRPRPSIAPRP | -0.271 |
| RRIRFRPPRLPRPRPRPSIHPRP | -0.84 |
| RRIRFRPPRLPRPRPRPSITPRP | -0.262 |
| RRIRFRPPRLPRPRPRPSKWPRP | -0.273 |
| RRIRFRPPRLPRPRPRPSLDPRP | -0.296 |
| RRIRFRPPRLPRPRPRPSMFPRP | -0.505 |
| RRIRFRPPRLPRPRPRPSNWPRP | -0.284 |
| RRIRFRPPRLPRPRPRPSRFPRP | -0.0395 |
| RRIRFRPPRLPRPRPRPSSKPRP | -0.32 |
| RRIRFRPPRLPRPRPRPSTPPRP | -0.463 |
